According to the Human Domainome abundance scans (Beltran et al. 2025):

B1: RNA-binding E3 ubiquitin-protein ligase MEX3C, residues 325 to 391; numbered along this chain, Q5U5Q3 (parent)
chain: GQTTVQVRVPYRVVGLVVGPKGATIKRIQQQTHTYIVTPSRDKEPVFEVTGMPENVDRAREEIEMHI

Variants of: B1
Experiment: abundance fitness (aPCA) (normalised: wild type 0, dead -1); higher = more abundant; growth selection in yeast, the domain comes from the species named
Conditions: Homo sapiens

Abundance fitness, by site and new letter:
D57: C -0.072, L -0.057, R 0.018, I -0.11, H -0.472, P -0.673, K 0.22, T 0.013, A 0.151, N 0.069, E 0.137, G -0.198, F -0.176, M 0.132, S -0.229, Q -0.108
M52: G -0.596, H -0.515, W -0.369, A -0.141, E -0.2, Y -0.19, Q -0.021, L -0.04, D -0.13, T 0.185, R -0.167, K -0.075, V -0.482, S 0.006, N -0.99, I -0.183, C -0.194, F -0.206
N55: E -0.401, A -0.146, D 0.033, F -0.711, G -0.281, L -0.885, C -0.544, I -0.646, W -1.17, Q 0.138, Y -0.811, M -0.541, S -0.426, T -0.627, K -0.647, R -0.789, V -0.8
F47: Y -0.677, V -0.792, T -0.511, W -0.412
G51: F -0.701, S -0.918, E -0.599, C -1.05, L -0.794, K -0.448, D -0.656, H -0.789, T -1.05, P -0.78, R -0.726, Q -0.776, W -0.951, Y -0.918
E48: N -0.733, C -0.357, L -0.029, W -0.124, D -0.534, Q -0.204, A -0.356, H -0.155, F -0.068, P -0.771, V -0.292, I -0.007, S -0.245, M -0.04, G -0.748
P53: Q -0.173, C -0.514, A -0.141, M -0.433, K -0.012, F -0.488, T -0.375, I -0.689, S -0.279, G -0.541, D -0.597, N -0.295, R -0.167, W -0.871, V -0.734
V49: Q -0.901, N -0.675, Y -0.804, R -0.788, K -0.702, I 0.129, A -0.682, M -0.793, S -0.843, W -0.99, C -0.668, P -1.34, G -0.469, T -0.626, F -0.842, L -0.62, D -0.71
T50: Q -0.624, L -0.547, E -0.835, M -0.378, N -0.792, V -0.745, C -0.313, G -0.651, K -0.52, H -0.315, I -0.494, F -0.618, S -0.254, Y -0.598, W -0.545, P -0.916
V56: M -0.455, C 0.009, A -0.585, W -0.809, L -0.574, T -0.286, E -0.927, S -0.496, H -0.712, N -1.11, Y -0.62, K -0.402, I -0.21, R -0.799, D -0.75, Q -0.455
E54: V -0.485, F -0.815, Y -0.382, K -0.519, T -0.267, N -0.419, A -0.079, L -0.325, H -0.332, P -0.235, D -0.119, G -0.179, S -0.213, Q -0.321, W -0.174, I -0.377, C -0.482, M -0.575, R -0.248
